Test results: the nanobody polyreactivity screen of Harvey et al. (2022)

Assay: yeast display, Sf9 membrane polyspecificity reagent, FACS + sequencing; frameworks hold sequencing errors
Outline: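 Nanobodies came from a synthetic yeast display library in Saccharomyces cerevisiae BJ5465, induced with galactose for 36–48 hours and stained for 1 hour at 4 °C with 10% biotinylated, detergent-solubilized Sf9 membrane reagent. Cells were enriched on streptavidin microbeads and then FACS-sorted, with low and high (top ~1%) gates set on anti-HA fluorescence for expression and streptavidin fluorescence for reagent binding. Each polyreactivity label reflects the gate a clone came from. Genes were amplified by colony PCR, sequenced by MiSeq 2 × 250 and filtered by CDR length.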

| Sequence | polyreactivity (PSR sort gate) |
| --- | --- |
| QVQLVESGGGLVQAGGSLRLSCAASGLTFDGYAKGWYRPAPGKERELVAAISSSSGRTYYADSVKGRFTISRDNAKNTVYLQMNSLKPEDTEVYYCNAVTTGVYKDYYYWGQGTQVTVSS | high polyreactivity |
| QVQLVESGGGLVQAGGSLRLSCAASGLTFDPYAMGWYRQAPGKEREFVATITTSGDSTYYADSVKGRFTISRDNAKNTVYLQMNSLTPEDTAVYYCNTQSRTLGWPLDYWGQGTQVTVSS | high polyreactivity |
| QVQLVESGGGLVQAGGSLRLSCAASGLTFDYYAMGWYRQAPGKERELVAAISIGGSTNYADSVKGRFTISRDNAKNTVYLQMNSLKPEDTAVYYCNAEFAPWGSAYGHDQYDYWGQGTQVTVSS | low polyreactivity |
| QVQLVESGGGLVQAGGSLRLSCAASGLTFDYYAMGWYRQAPGKERELVAAISSSGGSTYYADSVKGRFTISRDNAKNTVYLQMNSLKPEDTAVYYCNAGGRRRIFAHSSTGDYWGQGTQVTVSS | high polyreactivity |
| QVQLVESGGGLVQAGGSLRLSCAASGLTFDYYDMGWYRQAPGKERELVASITWRGSSTYYADSVKGRFTISRDNAKNTVYLQMYSLKPEDTAVYYCAADPQSTIRDYWGQGTQVTVSS | high polyreactivity |
| QVQLVESGGGLVQAGGSLRLSCAASGLTFDYYVMGWYRQAPGKERELVATISWSGDITYYADSVKGRFTISRDNAKNTVYLQMNSLKPEDTAVYYCATDKSYSSWSAQYDYWGQGTQVTVSS | low polyreactivity |
| QVQLVESGGGLVQAGGSLRLSCAASGLTFEDNDMGWYRQAPGKERELVAAISSAGSTSYADSVKGRFTISRDNAKNTVYLQRNSLKPDDTAVYYCAKDNSPSYTPAQLDGGDDYWGQGTQVTVSS | low polyreactivity |
| QVQLVESGGGLVQAGGSLRLSCAASGLTFEHNAMGWYRQAPGKETEFVAVISWRGTSTYYADSVKGRFTISRDNAKNTVYLQMNSLKPEDTAVYYCATRYYGDDGYRYDHWGQGTQVTVSS | high polyreactivity |
| QVQLVESGGGLVQAGGSLRLSCAASGLTFEKYAMGWYRQAPGKERELVAAISQDGGSTYYADSVKGRFTISRDNAKNTVYLQMNSLKPEDTAVYYCATGLGYFSRLDYWGQGTQVTVSS | low polyreactivity |
| QVQLVESGGGLVQAGGSLRLSCAASGLTFEWYPMGWSRQAPGKERELVAAITTGGTTNYADSVKGRFTISRDNAKNTVYLQMISLKPEDTAVYYCARLYRSGYEYWGQGTHVTVSS | low polyreactivity |
| QVQLVESGGGLVQAGGSLRLSCAASGLTFEYYAMGWYRQAPGKERELVAAISRRGSTYYADSVKGRFTISRDNAKNTVYLQMNSLKPEDTAVYYCNAVYYWYKGDYWGQGTQVTVSS | high polyreactivity |
| QVQLVESGGGLVQAGGSLRLSCAASGLTFFLYAMGWYRQAPGKERELVAAISSRGGSTYYADSVKGRFTISRDNAKNTVYLQMNSLKTEDTAVYYCAAATKGDEDYWGQGTQVTVSS | high polyreactivity |
| QVQLVESGGGLVQAGGSLRLSCAASGLTFFYYAMGWYRQAPGKERELVASITWRSGSTYYADSVKGRFTISRDNAKNTVYLQMNSLKPEDTAVYYCAAYPYTYLQLMDYWGQGTQVTVSS | high polyreactivity |
| QVQLVESGGGLVQAGGSLRLSCAASGLTFGAYAMGWYRQAPGKEREFVAAITYSGGSTNYADSVKGRFTISRDNAMNTVYLQMNSLKPEDTAVYYCNAGYYSPWAFYPYDYWGQGTQVTVSS | high polyreactivity |
| QVQLVESGGGLVQAGGSLRLSCAASGLTFGAYAMGWYRQAPGKERELVSAISWSGNTYYADSVKGRFTISRDNAKNTVYLQMNSLKPEDTAGYYCAVRSYGHGFDYWGQGTQVTVSS | high polyreactivity |
| QVQLVESGGGLVQAGGSLRLSCAASGLTFGGNAMGWYSQAPGKERELVAALSWSDDTTDYADSVKGRFTISRDNAKYTVYLQMNSLKPEDTAVYYCAARLPFEHVDYWGQGTQVTVSS | low polyreactivity |

| Sequence | polyreactivity (PSR sort gate) |
| --- | --- |
| QVQLVESGGGLVQAGGSLRLSCAASGLTFGGYAMGWYRQAPGKERELVAAISRSGTSTYYADSVKGRFTISRDNAKNTVYLQMNSLKPEDTAVYYCAKELYSWLQGYRGEGTMDYWGQGTQVTVSS | high polyreactivity |
| QVQLVESGGGLVQAGGSLRLSCAASGLTFGIYDMGWYRQAPGKERELVAGIRWSGGDSTYYADSVKGRFTNSRDNAKNTVYLQMNSLKPEDTAVYYCAARLYRWGGGLSRDKHGYWGQGTQVTVSS | low polyreactivity |
| QVQLVESGGGLVQAGGSLRLSCAASGLTFGNYAMGWDRQAPGKERELVAAISWGGGITYYADSVKGRFTISRDIAKNTVYLQMNSLKPEDTAVYYCAADVYFNSTPDYLYDYWGQGTQVTVSS | low polyreactivity |
| QVQLVESGGGLVQAGGSLRLSCAASGLTFGPYAMGWYRQAPGKERELVAAITSGGRTYYADSVKGRFTISRDNAKNTVYLKMNSLKPEDTAVYYCAADPLSGYDYWGQGTQVTVSS | low polyreactivity |
| QVQLVESGGGLVQAGGSLRLSCAASGLTFGSKAMGWYRQAPGKERELLAAISWNGGSTSYADSVKGRFTISRDNAKHTVYLQMNSLKPEDTAVNYCAADYFDSSYQPTDSILYEYWGQGTQVTVSS | low polyreactivity |
| QVQLVESGGGLVQAGGSLRLSCAASGLTFGWNAMGWYRQAPGKERESVAAISYNGVSTHYADSVKGRFTISRDNAKNTVYLQMNSLKPEDTAVYYCAARALTWPYGGTAPRLYNYWGQGTQVTVSS | low polyreactivity |
| QVQLVESGGGLVQAGGSLRLSCAASGLTFGYYAMGWYRQAPGKERELVAAISSSGGRTYYADSVKGRFTISRDNAKNTVYLQMNSLKPEDSAVYYCAKSRYATQTDYNYWGQGTQVTVSS | high polyreactivity |
| QVQLVESGGGLVQAGGSLRLSCAASGLTFGYYAMGWYRQAPGKERELVAVISGGGGTHYADSVKGRFTISRDNAKNTVYLQMNSLKPEDTAVYYCAAYTYRRYDYWGQGTQVTVSS | high polyreactivity |
| QVQLVESGGGLVQAGGSLRLSCAASGLTFHRYAMGWYRQAPGKERELVAAINYSGGRTYYADSVKGRFTISRDNAKNTVYLQMNSLKPEDTAVYYCAASLYRRQMDHWGQGTQVTVSS | high polyreactivity |
| QVQLVESGGGLVQAGGSLRLSCAASGLTFHYYDMGWYRQAPGKERELVAAISTGGGTYYADSVKGRFTISRDNAKNTVYLQMNSLKPEDTAVYYCAAETQHSYFVFSYYWGQGTQVTVSS | high polyreactivity |
| QVQLVESGGGLVQAGGSLRLSCAASGLTFIKYAMGWYRQAPGKEREFVADISKRGGTTYYADSVKGRFTISRDTEKNTVYLQMNSLKPEDTAVYYCAARQYLNVYYRYDYWGQGTQVTVSS | high polyreactivity |
| QVQLVESGGGLVQAGGSLRLSCAASGLTFKKYAMGWYRPAPGKERELVAAISSGSTTYYADSVKGRFTISRDNAKNTVYLQMNSLKPEDTAFYYCAARRKGTVASMGYWGQGTQVTVSS | high polyreactivity |
| QVQLVESGGGLVQAGGSLRLSCAASGLTFKRNAMGWYRQAPGKERELVAAIRYSTDSTNYADSVKGRFTISRDNAMYTVYLQMNSLKPEDTAVYYCAKDKQDYEYWGQGTQVTVSS | low polyreactivity |
| QVQLVESGGGLVQAGGSLRLSCAASGLTFKRYAMGWYRQAPGKERELVASITGNGGSTYYADSVKGRFTISRDNAKNTVYLQMNSLKPEDTAVYYCNARRYVRTSQQPLYDYWGQGTQVTVSS | high polyreactivity |
| QVQLVESGGGLVQAGGSLRLSCAASGLTFKSYAMGWNRQAPGKERELVAVISSSGGRTYYADSVKGRFTISRDNAKNTVYLQMNSLKPEDTAVYYCAADGSYGKWGGHAMYYLGQGTQVTVSS | high polyreactivity |
| QVQLVESGGGLVQAGGSLRLSCAASGLTFKVNAMGWYRQAPGRGRELVAAISVSGGSTYYADSVKGRFTISRDNAKNTVYLQMNSLKPEDTAVYYCNADFYYRYYGAYDYWGQGTQVTVSS | high polyreactivity |
